The results in this text go back to patent publication US20240166767A1 (SCIRHOM, published 2024).

B1: humanized antibody 42-B-04 (antibody, V domains shown)
VH: QVTLRESGPALVKPTQTLTLTCTFSGFSLSTFGRGVGWIRQPPGKALEWLAHIWWDDEKYYNSALKSRLTISKDTSKNQVVLTITNMDPVDTATYYCARIQNYGSNYWYFDVWGQGTLVTVSS
VL: AIQLTQSPSSLSASVGDRVTITCRASSRISYMFWYQQKPGKAPKVLIYDTSNLASGVPSRFSGSGSGTDYTLTISSLQPEDFATYYCQQWNAYPLTFGQGTKLEIK
notes: Tested as whole humanized antibody produced in CHO cells and detected with anti-human IgG; the general methods speak of human IgG1/Kappa; also called clone 42-B-04
B2: humanized antibody 23-B-04 (antibody, V domains shown)
VH: QVTLRESGPALVKPTQTLTLTCTFSGFSLSTFGMGVGWIRQPPGKALEWLAHIWWDDEKYYNSALKSRLTISKDTSKNQVVLTITNMDPVDTATYYCARISNYGSNYWYFNVWGQGTLVTVSS
VL: AIQLTQSPSSLSASVGDRVTITCRASSSVSYMYWYQQKPGKAPKVLIYDTSNLASGVPSRFSGSGSGTDYTLTISSLQPEDFATYYCQQWNAYPLTFGQGTKLEIK
notes: Tested as whole humanized antibody produced in CHO cells and detected with anti-human IgG; the general methods speak of human IgG1/Kappa; also called clone 23-B-04
B3: humanized antibody 42-B-02 (antibody, V domains shown)
VH: QVTLRESGPALVKPTQTLTLTCTFSGFSLSTFGRGVGWIRQPPGKALEWLAHIWWDDEKYYNSALKSRLTISKDTSKNQVVLTITNMDPVDTATYYCARIQNYGSNYWYFDVWGQGTLVTVSS
VL: AIQLTQSPSSLSASVGDRVTITCRASSRISYMFWYQQKPGKAPKVLIYDTSNLASGVPSRFSGSGSGTDYTLTISSLQPEDFATYYCQQWNSYPLTFGQGTKLEIK
notes: Tested as whole humanized antibody from transient expression of heavy chain/kappa light chain pairs in CHO cells, detected with anti-human IgG; the general methods speak of human IgG1/Kappa; also called clone 42-B-02
B4: humanized antibody 16-B-07 (antibody, V domains shown)
VH: QVTLRESGPALVKPTQTLTLTCTFSGFSLSTFALGVGWIRQPPGKALEWLAHIWWDEDKYYNPALKSRLTISKDTSKNQVVLTITNMDPVDTATYYCARITTYYYGMDYWGQGTLVTVSS
VL: EIVMTQSPDFQSVTPKEKVTITCRASQSIGNHLHWYQQKPDASPKLLIKYASQSISGVPSRFSGSGSGTDFTLTINSLEAEDAATYFCQQSYQWPLTFGQGTKLEIK
notes: Tested as whole humanized antibody produced in CHO cells and detected with anti-human IgG; the general methods speak of human IgG1/Kappa; also called clone 16-B-07
B5: humanized antibody 16-B-03 (antibody, V domains shown)
VH: QVTLRESGPALVKPTQTLTLTCTFSGFSLSTFALGVGWIRQPPGKALEWLAHIWWDDDKYYNPALKSRLTISKDTSKNQVVLTITNMDPVDTATYYCARITTYYYGMDYWGQGTLVTVSS
VL: EIVMTQSPDFQSVTPKEKVTITCRASQSIGNHLHWYQQKPDASPKLLIKYASQSISGVPSRFSGSGSGTDFTLTINSLEAEDAATYFCQQSYQWPLTFGQGTKLEIK
notes: Tested as whole humanized antibody produced in CHO cells and detected with anti-human IgG; the general methods speak of human IgG1/Kappa; also called clone 16-B-03
B6: humanized antibody 16-B-05 (antibody, V domains shown)
VH: QVTLRESGPALVKPTQTLTLTCTFSGFSLSTFALGVGWIRQPPGKALEWLAHIWWDEDKYYNPALKSRLTISKDTSKNQVVLTITNMDPVDTATYYCARITTYYYGMDYWGQGTLVTVSS
VL: EIVMTQSPDFQSVTPKEKVTITCRASQSIGNHLHWYQQKPDASPKLLIKYASQSISGVPSRFSGSGSGTDFTLTINSLEAEDAATYFCQQSYNWPLTFGQGTKLEIK
notes: Tested as whole humanized antibody produced in CHO cells and detected with anti-human IgG; the general methods speak of human IgG1/Kappa; The printed LCVD reads SRESGSG where the printed cDNA encodes SRFSGSG; also called clone 16-B-05

This test concerns the target T1, mouse iRhom2 full length wild type C-terminally tagged with 3 consecutive copies of the T7 epitope (mouse, UniProt Q80WQ6 1-827).
T1 construct: also called miR2-FL-WT-T7; mouse iRhom2 variant
T1 sequence: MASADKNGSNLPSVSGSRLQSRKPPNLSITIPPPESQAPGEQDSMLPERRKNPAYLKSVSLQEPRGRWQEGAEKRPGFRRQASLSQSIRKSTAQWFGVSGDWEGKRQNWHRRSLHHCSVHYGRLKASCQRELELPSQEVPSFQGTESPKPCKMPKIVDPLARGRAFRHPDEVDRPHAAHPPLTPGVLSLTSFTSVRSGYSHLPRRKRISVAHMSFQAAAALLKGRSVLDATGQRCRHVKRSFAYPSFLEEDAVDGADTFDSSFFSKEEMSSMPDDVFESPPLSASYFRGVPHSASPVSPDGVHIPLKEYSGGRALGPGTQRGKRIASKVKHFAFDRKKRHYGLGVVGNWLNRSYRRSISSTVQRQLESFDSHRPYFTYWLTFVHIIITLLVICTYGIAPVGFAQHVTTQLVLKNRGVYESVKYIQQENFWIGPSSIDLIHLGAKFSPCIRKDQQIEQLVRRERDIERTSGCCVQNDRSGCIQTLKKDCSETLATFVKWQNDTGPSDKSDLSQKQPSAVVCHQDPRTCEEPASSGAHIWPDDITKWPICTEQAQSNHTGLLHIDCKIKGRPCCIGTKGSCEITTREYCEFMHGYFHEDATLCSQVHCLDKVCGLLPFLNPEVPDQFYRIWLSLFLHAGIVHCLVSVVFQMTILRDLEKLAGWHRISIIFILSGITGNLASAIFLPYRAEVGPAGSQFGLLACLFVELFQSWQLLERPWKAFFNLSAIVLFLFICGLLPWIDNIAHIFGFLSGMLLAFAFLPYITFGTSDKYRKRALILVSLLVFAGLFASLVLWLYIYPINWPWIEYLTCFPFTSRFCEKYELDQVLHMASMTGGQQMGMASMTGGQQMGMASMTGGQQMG
The test can be described thus: FACS on MEF-DKO-miR2-FL-WT-T7 cells. Here is the method:
In brief, immortalized MEF-DKO-EV control cells, MEF-DKO-hiR2-FL-WT-T7 cells and MEF-DKO-miR2-FL-WT-T7 cells were harvested with 10 mM EDTA in PBS, washed and resuspended in FACS buffer (PBS, 3% FBS, 0.05% sodium azide), and seeded in Nunc U-bottom 96-well plates (Thermo Fisher Scientific, USA) at approximately 3×10⁵ cells per well. To pellet cells and remove supernatants, the plates were centrifuged at 1,500 rpm and 4° C. for 3 minutes. For primary staining, cells were resuspended in 100 μl per well of either FACS buffer alone (controls), mouse monoclonal anti-T7 IgG (Merck Millipore, USA) at 3 μg/ml FACS buffer or the humanized antibodies 16-B-03, 16-B-05, 16-B-07, 23-B-04, 42-B-02 and 42-B-04 of the invention also at 3 μg/ml FACS buffer and incubated on ice for 1 hour. Afterwards, plates were centrifuged at 1,500 rpm and 4° C. for 3 minutes and washed twice with 200 μl per well of FACS buffer. For secondary staining of previous anti T7 staining, cells were spun down and resuspended in 100 μl per well of PE-conjugated goat anti-mouse IgG F(ab′)2 detection fragment (Dianova, Germany) diluted 1:100 in FACS buffer. For secondary staining of previous staining with humanized antibodies of invention, cells were spun down and resuspended in 100 μl per well of PE-conjugated goat anti-human IgG F(ab′)2 detection fragment (Dianova, Germany) diluted 1:100 in FACS buffer. Protected from light, the cell suspensions were incubated on ice for 1 hour. Plates were then centrifuged at 1,500 rpm and 4° C. for 3 minutes and washed three times with 200 μl per well of FACS buffer. Finally, cells were resuspended in 150 μl per well of FACS buffer and analyzed using a BD Accuri™ C6 Plus flow cytometer (Becton Dickinson, Germany).
In the case of B1, the binding result was “no binding (tested: 3 µg/ml)”.

B2: the binding result is recorded as “no binding (tested: 3 µg/ml)”. On to B3, for which the binding result is “no binding (tested: 3 µg/ml)”. On to B4, for which the binding result was “no binding (tested: 3 µg/ml)”. In the case of B5 it was “no binding (tested: 3 µg/ml)”.

In the case of B6, the binding result is listed as “no binding (tested: 3 µg/ml)”.
